In the supplement of paper PMC10065799, “High-throughput profiling of sequence recognition by tyrosine kinases and SH2 domains using bacterial peptide display” (eLife, 2023):

Key:
[1] = target: EPHB2 (UniProt P29323); assay: phosphorylation enrichment, bacterial display (enrichment ratio); higher = better substrate or ligand; peptides without Tyr show the background
[2] = system: Fer (mouse); assay: as above
[3] = target: EPHB1 (UniProt P54762); assay: as above
[4] = target: Fes (UniProt P07332); assay: as above
Chain of Fes (P07332 whole entry, looked up): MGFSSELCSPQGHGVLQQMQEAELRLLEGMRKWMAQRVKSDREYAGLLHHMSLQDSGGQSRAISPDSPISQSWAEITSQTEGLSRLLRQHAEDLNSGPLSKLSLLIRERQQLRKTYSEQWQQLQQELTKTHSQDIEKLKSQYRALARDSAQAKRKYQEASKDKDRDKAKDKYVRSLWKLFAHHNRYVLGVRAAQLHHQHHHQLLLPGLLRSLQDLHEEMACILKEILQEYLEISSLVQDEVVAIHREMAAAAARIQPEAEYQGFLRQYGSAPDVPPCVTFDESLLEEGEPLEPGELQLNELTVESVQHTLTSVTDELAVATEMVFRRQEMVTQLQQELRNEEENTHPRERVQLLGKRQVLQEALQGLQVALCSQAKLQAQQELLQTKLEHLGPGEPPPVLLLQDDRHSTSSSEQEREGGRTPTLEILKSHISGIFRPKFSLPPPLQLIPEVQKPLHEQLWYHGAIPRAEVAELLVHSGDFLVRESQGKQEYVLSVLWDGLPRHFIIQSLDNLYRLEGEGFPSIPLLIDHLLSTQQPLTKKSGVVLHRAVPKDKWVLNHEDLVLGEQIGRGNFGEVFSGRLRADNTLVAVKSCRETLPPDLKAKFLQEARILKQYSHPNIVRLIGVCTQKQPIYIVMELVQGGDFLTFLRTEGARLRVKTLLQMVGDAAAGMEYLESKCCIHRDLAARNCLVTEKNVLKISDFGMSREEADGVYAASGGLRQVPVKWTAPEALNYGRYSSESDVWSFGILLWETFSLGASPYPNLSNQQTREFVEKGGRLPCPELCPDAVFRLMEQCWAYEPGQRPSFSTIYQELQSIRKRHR

[5] = target: Fyn (UniProt P06241); assay: as above
Chain of Fyn (P06241 whole entry, looked up): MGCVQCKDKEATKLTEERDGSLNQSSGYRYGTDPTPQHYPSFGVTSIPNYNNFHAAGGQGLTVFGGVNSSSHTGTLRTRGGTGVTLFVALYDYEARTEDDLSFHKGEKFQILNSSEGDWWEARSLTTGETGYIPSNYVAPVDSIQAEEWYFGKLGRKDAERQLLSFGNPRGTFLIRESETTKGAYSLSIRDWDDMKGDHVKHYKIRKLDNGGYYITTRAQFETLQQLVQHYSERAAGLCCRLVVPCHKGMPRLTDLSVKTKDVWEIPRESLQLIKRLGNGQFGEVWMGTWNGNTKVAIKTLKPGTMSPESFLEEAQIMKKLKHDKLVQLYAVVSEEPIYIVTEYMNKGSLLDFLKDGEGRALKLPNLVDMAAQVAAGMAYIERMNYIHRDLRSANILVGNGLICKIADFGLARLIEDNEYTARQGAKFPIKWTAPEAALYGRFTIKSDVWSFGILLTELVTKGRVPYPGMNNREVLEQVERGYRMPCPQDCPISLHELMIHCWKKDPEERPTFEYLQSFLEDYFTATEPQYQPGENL

[6] = target: Jak2 (UniProt O60674); assay: as above
[7] = system: AncSZ; assay: as above
[8] = target: MERTK (UniProt Q12866); assay: as above
[9] = target: FGFR3 (UniProt P22607); assay: as above
Chain of FGFR3 (P22607 whole entry, looked up): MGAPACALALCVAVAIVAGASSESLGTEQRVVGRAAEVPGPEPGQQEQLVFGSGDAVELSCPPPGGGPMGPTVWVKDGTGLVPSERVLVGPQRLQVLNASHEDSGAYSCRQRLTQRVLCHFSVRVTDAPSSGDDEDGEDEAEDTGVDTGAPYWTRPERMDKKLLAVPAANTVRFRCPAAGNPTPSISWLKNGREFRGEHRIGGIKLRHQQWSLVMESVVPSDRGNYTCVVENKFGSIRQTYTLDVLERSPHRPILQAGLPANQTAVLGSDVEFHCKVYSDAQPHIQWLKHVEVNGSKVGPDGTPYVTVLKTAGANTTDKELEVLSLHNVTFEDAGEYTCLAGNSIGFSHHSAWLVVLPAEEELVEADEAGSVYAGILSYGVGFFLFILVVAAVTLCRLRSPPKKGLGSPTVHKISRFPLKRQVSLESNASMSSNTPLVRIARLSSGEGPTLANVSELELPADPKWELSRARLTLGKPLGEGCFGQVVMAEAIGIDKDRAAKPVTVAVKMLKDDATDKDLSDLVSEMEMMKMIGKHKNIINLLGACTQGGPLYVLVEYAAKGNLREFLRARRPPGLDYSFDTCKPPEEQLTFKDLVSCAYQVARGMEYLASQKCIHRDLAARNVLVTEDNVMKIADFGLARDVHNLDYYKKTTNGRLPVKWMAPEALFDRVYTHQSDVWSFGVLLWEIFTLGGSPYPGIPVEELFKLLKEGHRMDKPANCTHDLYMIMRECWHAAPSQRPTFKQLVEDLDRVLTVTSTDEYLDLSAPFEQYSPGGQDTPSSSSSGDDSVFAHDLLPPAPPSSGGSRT

[10] = system: c-Abl (mouse); assay: as above
[11] = target: FGFR1 (UniProt P11362); assay: as above
Chain of FGFR1 (P11362 whole entry, looked up): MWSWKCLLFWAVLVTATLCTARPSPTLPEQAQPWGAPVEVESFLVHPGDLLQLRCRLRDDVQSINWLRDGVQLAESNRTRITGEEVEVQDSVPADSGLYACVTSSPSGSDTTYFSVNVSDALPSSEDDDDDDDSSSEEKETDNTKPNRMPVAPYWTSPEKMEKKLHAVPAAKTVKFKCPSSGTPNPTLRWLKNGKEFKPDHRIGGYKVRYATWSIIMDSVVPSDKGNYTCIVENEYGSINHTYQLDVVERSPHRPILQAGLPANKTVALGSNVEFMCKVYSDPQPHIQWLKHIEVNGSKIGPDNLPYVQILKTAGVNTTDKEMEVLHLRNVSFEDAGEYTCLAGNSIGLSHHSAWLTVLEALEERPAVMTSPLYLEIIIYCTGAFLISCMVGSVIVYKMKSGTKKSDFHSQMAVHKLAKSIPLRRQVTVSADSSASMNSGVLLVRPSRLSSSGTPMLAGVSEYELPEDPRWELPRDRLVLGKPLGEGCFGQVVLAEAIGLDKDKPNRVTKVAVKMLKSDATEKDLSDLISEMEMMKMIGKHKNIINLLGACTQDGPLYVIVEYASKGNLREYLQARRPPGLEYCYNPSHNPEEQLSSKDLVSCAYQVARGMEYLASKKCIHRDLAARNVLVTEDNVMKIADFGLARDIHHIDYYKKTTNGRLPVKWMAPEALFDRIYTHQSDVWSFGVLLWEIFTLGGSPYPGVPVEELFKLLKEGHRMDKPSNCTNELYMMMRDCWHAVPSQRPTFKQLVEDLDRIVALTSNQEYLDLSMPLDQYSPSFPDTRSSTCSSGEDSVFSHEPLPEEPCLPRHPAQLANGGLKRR

[12] = target: Hck (UniProt P08631); assay: as above
[13] = system: c-Src; assay: as above
[14] = target: SHP2-C SH2; assay: SH2 binding enrichment of the phosphorylated peptide, bacterial display (enrichment ratio); higher = better substrate or ligand; peptides without Tyr show the background
[15] = target: c-Src SH2; assay: as above
[16] = target: Grb2 SH2 (UniProt P62993); assay: as above
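Throughout, for SH2 binding enrichment of the phosphorylated peptide, bacterial display: peptide library displayed on the E. coli surface as eCPX fusions, selected cells deep-sequenced, score is each peptide's frequency after selection divided by its frequency in the input.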
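Throughout, for phosphorylation enrichment, bacterial display: 11-residue human phosphosite peptides and single-mutation variants displayed on the E. coli surface, counted by deep sequencing, each peptide's frequency after selection divided by its frequency in the unselected input library; frequency after pTyr selection over input frequency; kinase dosed for 20-30% of maximal phosphorylation in three min.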

Chain of EPHB1 (P54762 whole entry, looked up): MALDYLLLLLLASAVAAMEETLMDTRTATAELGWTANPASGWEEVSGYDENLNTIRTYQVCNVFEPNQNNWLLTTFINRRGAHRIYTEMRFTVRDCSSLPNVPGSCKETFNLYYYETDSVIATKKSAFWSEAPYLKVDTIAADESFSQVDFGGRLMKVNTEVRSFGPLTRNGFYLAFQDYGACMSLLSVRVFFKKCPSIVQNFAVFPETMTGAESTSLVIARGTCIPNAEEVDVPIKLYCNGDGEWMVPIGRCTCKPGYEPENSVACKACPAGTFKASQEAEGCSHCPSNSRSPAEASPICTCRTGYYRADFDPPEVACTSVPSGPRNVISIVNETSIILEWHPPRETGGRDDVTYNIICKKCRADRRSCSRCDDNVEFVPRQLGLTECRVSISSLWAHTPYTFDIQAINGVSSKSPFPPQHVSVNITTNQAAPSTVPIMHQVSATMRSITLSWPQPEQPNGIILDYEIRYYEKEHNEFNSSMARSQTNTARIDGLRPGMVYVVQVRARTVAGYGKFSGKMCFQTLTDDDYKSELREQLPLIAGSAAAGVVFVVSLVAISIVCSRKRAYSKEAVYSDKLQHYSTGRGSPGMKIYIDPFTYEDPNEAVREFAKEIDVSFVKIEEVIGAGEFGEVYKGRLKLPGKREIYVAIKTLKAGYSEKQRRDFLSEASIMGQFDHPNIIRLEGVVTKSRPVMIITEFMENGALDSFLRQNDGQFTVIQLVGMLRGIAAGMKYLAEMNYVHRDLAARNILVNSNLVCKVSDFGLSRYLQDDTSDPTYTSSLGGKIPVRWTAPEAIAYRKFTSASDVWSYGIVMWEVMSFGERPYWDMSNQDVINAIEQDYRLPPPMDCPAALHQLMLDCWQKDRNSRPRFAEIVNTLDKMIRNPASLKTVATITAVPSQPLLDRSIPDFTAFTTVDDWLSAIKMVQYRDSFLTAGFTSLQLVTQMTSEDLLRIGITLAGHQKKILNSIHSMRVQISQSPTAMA
Chain of EPHB2 (P29323 whole entry, looked up): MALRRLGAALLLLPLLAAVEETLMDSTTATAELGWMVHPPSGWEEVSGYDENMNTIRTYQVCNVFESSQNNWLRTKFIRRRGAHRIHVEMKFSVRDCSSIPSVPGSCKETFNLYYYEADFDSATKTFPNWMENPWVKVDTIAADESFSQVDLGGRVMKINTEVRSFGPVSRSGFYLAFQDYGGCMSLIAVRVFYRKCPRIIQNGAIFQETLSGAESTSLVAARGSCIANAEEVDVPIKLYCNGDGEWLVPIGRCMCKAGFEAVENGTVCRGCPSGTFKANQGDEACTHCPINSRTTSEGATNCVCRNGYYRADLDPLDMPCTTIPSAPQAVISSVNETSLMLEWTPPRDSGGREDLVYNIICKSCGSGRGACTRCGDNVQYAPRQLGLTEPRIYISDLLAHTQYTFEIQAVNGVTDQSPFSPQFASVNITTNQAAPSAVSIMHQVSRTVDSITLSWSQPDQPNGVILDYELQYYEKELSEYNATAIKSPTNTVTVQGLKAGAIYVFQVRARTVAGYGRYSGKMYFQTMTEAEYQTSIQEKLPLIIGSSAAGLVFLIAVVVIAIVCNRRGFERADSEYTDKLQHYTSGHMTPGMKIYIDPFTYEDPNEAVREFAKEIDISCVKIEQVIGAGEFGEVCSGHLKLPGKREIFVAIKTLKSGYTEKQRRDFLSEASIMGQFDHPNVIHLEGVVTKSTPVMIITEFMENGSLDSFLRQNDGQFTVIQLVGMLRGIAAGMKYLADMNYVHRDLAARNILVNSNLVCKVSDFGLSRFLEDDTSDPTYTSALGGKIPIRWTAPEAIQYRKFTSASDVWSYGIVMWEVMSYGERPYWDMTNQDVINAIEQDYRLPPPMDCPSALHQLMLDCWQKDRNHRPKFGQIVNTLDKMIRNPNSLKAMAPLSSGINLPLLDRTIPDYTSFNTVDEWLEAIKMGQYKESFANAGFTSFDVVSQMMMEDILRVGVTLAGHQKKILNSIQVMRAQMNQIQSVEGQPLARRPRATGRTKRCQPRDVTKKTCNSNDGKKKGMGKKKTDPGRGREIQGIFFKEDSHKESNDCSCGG

| Sequence | SH2 binding enrichment [14] | SH2 binding enrichment [15] | SH2 binding enrichment [16] | phosphorylation enrichment [1] | phosphorylation enrichment [2] | phosphorylation enrichment [3] | phosphorylation enrichment [4] | phosphorylation enrichment [5] | phosphorylation enrichment [6] | phosphorylation enrichment [7] | phosphorylation enrichment [8] | phosphorylation enrichment [9] | phosphorylation enrichment [10] | phosphorylation enrichment [11] | phosphorylation enrichment [12] | phosphorylation enrichment [13] |
| --- | --- | --- | --- | --- | --- | --- | --- | --- | --- | --- | --- | --- | --- | --- | --- | --- |
| AAYNKYDQERF [CDC73_Y293_R292K] | 0.863 | 0.58 | 0.923 | 0.335 | 0.419 | 0.364 | 0.762 | 0.371 | 0.739 | 0.54 | 0.287 | 0.454 | 0.588 | 0.332 | 0.299 | 0.398 |
| ACVARYIFKRL [LPCAT3_Y348_W344C] | 0.859 | 0.753 | 0.89 | 0.51 | 0.492 | 0.407 | 0.841 | 0.635 | 0.683 | 0.979 | 0.492 | 0.553 | 0.606 | 0.502 | 0.426 | 0.545 |
| ADEQIYWQIAA [CSKtide_2014] | 0.515 | 0.439 | 0.649 | 1.37 | 2.25 | 2.64 | 1.56 | 5.62 | 1.58 | 2.59 | 3.12 | 6.65 | 5.09 | 7.87 | 4.33 | 4.66 |
| ADIETYLLEKS [MYH7_Y266] | 0.88 | 0.405 | 0.755 | 0.582 | 0.431 | 0.466 | 1.12 | 0.554 | 0.871 | 1.04 | 0.46 | 0.635 | 0.746 | 0.484 | 0.551 | 0.731 |
| AIIEEYLHLND [EIF4G1_Y1253] | 0.855 | 0.446 | 0.763 | 0.498 | 0.487 | 0.564 | 1.19 | 0.493 | 0.959 | 1.02 | 0.376 | 0.736 | 0.585 | 0.564 | 0.492 | 0.411 |
| AIIEEYLHLSD [EIF4G1_Y1253_N1257S] | 0.752 | 0.561 | 0.749 | 0.698 | 0.6 | 0.714 | 1.4 | 0.635 | 1.19 | 1.24 | 0.515 | 0.838 | 0.885 | 0.592 | 0.655 | 0.458 |
| AKKKMYSLKTK [AGXT_Y231_R233L] | 1.51 | 1.54 | 1.2 | 0.463 | 0.373 | 0.317 | 0.791 | 0.365 | 0.795 | 0.404 | 0.435 | 0.853 | 0.773 | 0.389 | 0.44 | 0.434 |
| AKKKMYSRKTK [AGXT_Y231] | 0.488 | 0.409 | 0.638 | 0.385 | 0.443 | 0.437 | 0.505 | 0.431 | 0.455 | 0.595 | 0.457 | 0.476 | 0.478 | 0.546 | 0.496 | 0.42 |

Second part, led by results:

| SH2 binding enrichment [14] | SH2 binding enrichment [15] | SH2 binding enrichment [16] | Sequence | phosphorylation enrichment [1] | phosphorylation enrichment [2] | phosphorylation enrichment [3] | phosphorylation enrichment [4] | phosphorylation enrichment [5] | phosphorylation enrichment [6] | phosphorylation enrichment [7] | phosphorylation enrichment [8] | phosphorylation enrichment [9] | phosphorylation enrichment [10] | phosphorylation enrichment [11] | phosphorylation enrichment [12] | phosphorylation enrichment [13] |
| --- | --- | --- | --- | --- | --- | --- | --- | --- | --- | --- | --- | --- | --- | --- | --- | --- |
| 0.593 | 0.4 | 0.824 | AASTDYYKRGD [PDHA1_Y242] | 0.45 | 0.515 | 0.51 | 0.811 | 0.597 | 0.811 | 0.83 | 0.511 | 0.586 | 0.615 | 0.592 | 0.568 | 0.523 |
| 0.55 | 0.488 | 0.601 | ADRNHYRRFPR [YBX1_Y145_YF] | 0.54 | 0.603 | 0.452 | 0.71 | 0.519 | 0.654 | 0.8 | 0.552 | 0.508 | 0.871 | 0.539 | 0.556 | 0.689 |
| 0.656 | 0.457 | 0.805 | AEFGLYGAMVW [VSX2_Y222_R227W_YF] | 1.15 | 2.1 | 0.729 | 1.48 | 3.08 | 1.38 | 1.26 | 1.06 | 0.887 | 0.995 | 0.645 | 2.93 | 2.69 |
| 0.787 | 0.607 | 0.876 | AELVPYFMEHH [PTPN11_Y80_Q79P_YF] | 0.602 | 0.515 | 0.605 | 1.15 | 0.636 | 1.02 | 0.913 | 0.463 | 0.614 | 0.741 | 0.531 | 0.562 | 0.883 |
| 0.875 | 0.69 | 0.89 | AELVRYYMEHH [PTPN11_Y80_Q79R] | 0.857 | 0.457 | 1.03 | 1.12 | 0.514 | 0.865 | 0.856 | 0.639 | 0.673 | 0.421 | 0.623 | 0.683 | 0.486 |
| 0.635 | 0.548 | 0.967 | AERKLYSGAQT [ZAP70_Y178] | 0.295 | 0.358 | 0.436 | 0.536 | 0.375 | 0.412 | 0.504 | 0.414 | 0.457 | 0.545 | 0.36 | 0.395 | 0.383 |
| 0.669 | 0.61 | 0.792 | AGIVVYNIIGW [MYH7_Y588_D587V] | 0.633 | 0.726 | 0.919 | 1.57 | 2.31 | 1.37 | 1.14 | 1.17 | 0.807 | 1.51 | 0.506 | 2.35 | 2.14 |
| 0.888 | 0.547 | 0.732 | AGLEDYDRLRP [RAC3_Y64_Q61L] | 0.791 | 0.62 | 0.505 | 0.933 | 0.544 | 0.931 | 1.13 | 0.402 | 0.744 | 0.657 | 0.836 | 0.894 | 0.485 |
